Source: PMC10183829, “Shuffled ATG8 interacting motifs form an ancestral bridge between UFMylation and autophagy” (The EMBO Journal, 2023)

Experiments:
GST-GABARAP = GST-GABARAP (UniProt O95166); assay: microscopy-based protein-protein interaction assay (on-bead binding, confocal); settings: 1 μM C53 protein; glutathione-sepharose beads with GST-GABARAP; parent: est. 1.0; read off a plot
[1] = molecular target: GST-ATG8A (Arabidopsis thaliana) (UniProt Q8LEM4); assay: microscopy-based on-bead protein-protein interaction assay
Chain of GST-ATG8A (Arabidopsis thaliana) (Q8LEM4 1-117): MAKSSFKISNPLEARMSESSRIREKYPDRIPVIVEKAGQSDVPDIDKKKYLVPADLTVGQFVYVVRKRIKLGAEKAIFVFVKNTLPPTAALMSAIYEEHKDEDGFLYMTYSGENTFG

Chain of GST-GABARAP (O95166 whole entry): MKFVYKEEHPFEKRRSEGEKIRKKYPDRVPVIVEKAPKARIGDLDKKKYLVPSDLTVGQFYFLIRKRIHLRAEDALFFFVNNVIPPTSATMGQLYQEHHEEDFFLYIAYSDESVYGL

Substance	response (normalized fluorescence) (GST-GABARAP)	percent more efficiently recruited than the wild type [1]
mCh-AtC53, Q9FG23 IDWD274WDDI; IDWD285WDDI; IDWD333WDDI	1.4	–
mCh-AtC53^cAIM (IDWD274WDDI, IDWD285WDDI, IDWD333WDDI) (natural protein)	–	22%
